Each sequence was assayed on Escherichia coli TOP10 (assay: shrunken log2 fold change of peptide-encoding DNA abundance (4.5 h post-induction vs induction); higher = less antimicrobial activity (less host growth inhibition)). Settings: time post-induction: 4.5 h; library: site-saturation at positions 5, 18, 19, 20.
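Note: peptides expressed intracellularly from a pBAD plasmid library in pooled LB shake-flask culture, induced with 0.3% L-arabinose, DNA abundance read by NGS, three biological replicates, DESeq2 with apeglm shrinkage.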

Sequence | shrunken log2 fold change
RRIRRRPPRLPRPRPRPHWVPRP | 0.0391
RRIRSRPPRLPRPRPRPNNHPRP | -0.276
RRIRVRPPRLPRPRPRPPKKPRP | 0.167
RRIRGRPPRLPRPRPRPYLQPRP | -0.182
RRIRARPPRLPRPRPRPKTHPRP | 0.227
RRIRWRPPRLPRPRPRPDAWPRP | 0.884
RRIRDRPPRLPRPRPRPSHIPRP | -1.15
RRIRGRPPRLPRPRPRPWDQPRP | 0.432
RRIRNRPPRLPRPRPRPFYHPRP | -0.0822
RRIRGRPPRLPRPRPRPCKTPRP | 0.0121
RRIRDRPPRLPRPRPRPAEAPRP | 0.314
RRIRQRPPRLPRPRPRPHLLPRP | 0.006
RRIRWRPPRLPRPRPRPRFQPRP | 0.199
RRIRHRPPRLPRPRPRPGIQPRP | -0.277
RRIRHRPPRLPRPRPRPDDPPRP | -0.0026
RRIRQRPPRLPRPRPRPYRAPRP | -0.0946
RRIRTRPPRLPRPRPRPRWLPRP | 0.369
RRIRQRPPRLPRPRPRPSTSPRP | -0.126
RRIRDRPPRLPRPRPRPDRWPRP | 0.366
RRIRSRPPRLPRPRPRPQSQPRP | -0.258
RRIRKRPPRLPRPRPRPDVKPRP | -0.0302
RRIRRRPPRLPRPRPRPQQKPRP | 0.011
RRIRLRPPRLPRPRPRPWEQPRP | -0.206
RRIRVRPPRLPRPRPRPFYCPRP | -0.605
RRIRERPPRLPRPRPRPTNFPRP | -0.00437

Sequence | shrunken log2 fold change
RRIRNRPPRLPRPRPRPGSRPRP | -0.0159
RRIRYRPPRLPRPRPRPRVVPRP | -0.405
RRIRSRPPRLPRPRPRPWCVPRP | -0.22
RRIRPRPPRLPRPRPRPYRKPRP | 0.0208
RRIRDRPPRLPRPRPRPSKGPRP | -0.0731
RRIRKRPPRLPRPRPRPFARPRP | 0.187
RRIRMRPPRLPRPRPRPDKQPRP | 0.0746
RRIRQRPPRLPRPRPRPGWDPRP | 0.135
RRIRFRPPRLPRPRPRPTFVPRP | -0.051
RRIRFRPPRLPRPRPRPSFRPRP | -0.433
RRIRIRPPRLPRPRPRPLEVPRP | -0.0958
RRIRYRPPRLPRPRPRPQELPRP | -0.00884
RRIRQRPPRLPRPRPRPWTDPRP | 0.0166
RRIRGRPPRLPRPRPRPEPWPRP | 0.655
RRIRMRPPRLPRPRPRPDVSPRP | 2.14
RRIRSRPPRLPRPRPRPRMRPRP | 0.91
RRIRSRPPRLPRPRPRPKHSPRP | -0.572
RRIRDRPPRLPRPRPRPDFDPRP | 0.541
RRIRDRPPRLPRPRPRPTLNPRP | 0.171
RRIRVRPPRLPRPRPRPFIKPRP | -0.865
RRIRARPPRLPRPRPRPPQRPRP | 1.16
RRIRKRPPRLPRPRPRPTYMPRP | -0.121
RRIRIRPPRLPRPRPRPAKHPRP | -0.476
RRIRDRPPRLPRPRPRPRARPRP | 0.601
RRIRYRPPRLPRPRPRPKNDPRP | -0.737

Sequence | shrunken log2 fold change
RRIRSRPPRLPRPRPRPANEPRP | 0.0433
RRIRKRPPRLPRPRPRPKMMPRP | 0.421
RRIRDRPPRLPRPRPRPAHSPRP | -0.143
RRIRARPPRLPRPRPRPWPEPRP | 0.245
RRIRDRPPRLPRPRPRPDVTPRP | 0.149
RRIRCRPPRLPRPRPRPLSCPRP | -0.184
RRIRPRPPRLPRPRPRPWCMPRP | -0.355
RRIRFRPPRLPRPRPRPDTSPRP | -0.985
RRIRLRPPRLPRPRPRPWNSPRP | -0.018
RRIRQRPPRLPRPRPRPGAIPRP | 0.0781
RRIRFRPPRLPRPRPRPRMQPRP | 0.206
RRIRWRPPRLPRPRPRPNQSPRP | -0.108
RRIRERPPRLPRPRPRPVFDPRP | -0.461
RRIRLRPPRLPRPRPRPAPPPRP | 0.676
RRIRRRPPRLPRPRPRPNPWPRP | 0.231
RRIRCRPPRLPRPRPRPNKSPRP | -0.584
RRIRARPPRLPRPRPRPWERPRP | 0.12
RRIRGRPPRLPRPRPRPKEWPRP | -0.00523
RRIRWRPPRLPRPRPRPDHMPRP | -0.128
RRIRKRPPRLPRPRPRPAVIPRP | 0.076
RRIRKRPPRLPRPRPRPIPTPRP | 0.397
RRIRGRPPRLPRPRPRPFDHPRP | -0.0514
RRIRVRPPRLPRPRPRPQDYPRP | -0.125
RRIRKRPPRLPRPRPRPVSSPRP | 0.00728
RRIRERPPRLPRPRPRPKIKPRP | -0.6

Sequence | shrunken log2 fold change
RRIRARPPRLPRPRPRPCHVPRP | -0.0999
RRIRYRPPRLPRPRPRPDNWPRP | -0.38
RRIRERPPRLPRPRPRPHDNPRP | -0.227
RRIRTRPPRLPRPRPRPEMCPRP | -0.00146
RRIRCRPPRLPRPRPRPSETPRP | 0.108
RRIRTRPPRLPRPRPRPHPYPRP | 0.0733
RRIRVRPPRLPRPRPRPDGVPRP | -0.0176
RRIRKRPPRLPRPRPRPISCPRP | 0.0993
RRIRERPPRLPRPRPRPMRTPRP | 0.0487
RRIRIRPPRLPRPRPRPEDVPRP | -0.0939
RRIRMRPPRLPRPRPRPCCKPRP | -0.233
RRIRPRPPRLPRPRPRPCVTPRP | 0.15
RRIRRRPPRLPRPRPRPYRTPRP | -0.394
RRIRLRPPRLPRPRPRPNVSPRP | -0.0595
RRIRKRPPRLPRPRPRPIQVPRP | -0.137
RRIRERPPRLPRPRPRPNSEPRP | -0.391
RRIRARPPRLPRPRPRPNWEPRP | -0.0132
RRIRRRPPRLPRPRPRPMEAPRP | 0.0829
RRIRHRPPRLPRPRPRPVRQPRP | 0.0261
RRIRYRPPRLPRPRPRPLLTPRP | -0.647
RRIRIRPPRLPRPRPRPGGHPRP | -0.0701
RRIRKRPPRLPRPRPRPVKWPRP | 0.122
RRIRLRPPRLPRPRPRPGIPPRP | 0.215
RRIRERPPRLPRPRPRPIILPRP | -0.136
RRIRDRPPRLPRPRPRPSARPRP | 0.465

Sequence | shrunken log2 fold change
RRIRFRPPRLPRPRPRPIVCPRP | -0.406
RRIRDRPPRLPRPRPRPHNQPRP | -0.398
RRIRHRPPRLPRPRPRPMQSPRP | -0.215
RRIRTRPPRLPRPRPRPQNQPRP | -0.584
RRIRLRPPRLPRPRPRPISLPRP | -0.36
RRIRLRPPRLPRPRPRPICEPRP | 0.0628
RRIRPRPPRLPRPRPRPYWKPRP | -0.189
RRIRVRPPRLPRPRPRPMAIPRP | -0.11
RRIRSRPPRLPRPRPRPEQHPRP | -0.101
RRIRCRPPRLPRPRPRPQVQPRP | 0.0244
RRIRHRPPRLPRPRPRPPDGPRP | 0.178
RRIRHRPPRLPRPRPRPWLQPRP | 0.0358
RRIRKRPPRLPRPRPRPDCWPRP | 0.825
RRIRRRPPRLPRPRPRPQWPPRP | 0.00418
RRIRKRPPRLPRPRPRPHQFPRP | -0.114
RRIRERPPRLPRPRPRPPWMPRP | -0.22
RRIRLRPPRLPRPRPRPADEPRP | 0.167
RRIRRRPPRLPRPRPRPDYIPRP | -0.339
RRIRTRPPRLPRPRPRPLYCPRP | -0.715
RRIRSRPPRLPRPRPRPTNDPRP | -0.162
RRIRSRPPRLPRPRPRPFDNPRP | 0.0211
RRIRSRPPRLPRPRPRPWMGPRP | -0.238
RRIRQRPPRLPRPRPRPNWWPRP | 0.00333
RRIRGRPPRLPRPRPRPGAMPRP | 1.25
RRIRSRPPRLPRPRPRPRIFPRP | 0.206

Sequence | shrunken log2 fold change
RRIRPRPPRLPRPRPRPLFQPRP | -0.0669
RRIRTRPPRLPRPRPRPFDWPRP | 0.0371
RRIRDRPPRLPRPRPRPQVWPRP | 0.0447
RRIRPRPPRLPRPRPRPWKMPRP | 0.0124
RRIRQRPPRLPRPRPRPTRIPRP | 0.0389
RRIRPRPPRLPRPRPRPYYQPRP | -0.496
RRIRLRPPRLPRPRPRPQYQPRP | -0.801
RRIRMRPPRLPRPRPRPIELPRP | -0.04
RRIRKRPPRLPRPRPRPSHMPRP | -0.0291
RRIRERPPRLPRPRPRPICIPRP | -0.0731
RRIRIRPPRLPRPRPRPMEPPRP | -0.101
RRIRVRPPRLPRPRPRPAWCPRP | 0.211
RRIRNRPPRLPRPRPRPAFPPRP | -0.138
RRIRIRPPRLPRPRPRPWPVPRP | -0.0355
RRIRKRPPRLPRPRPRPFQRPRP | -0.0265
RRIRIRPPRLPRPRPRPTNTPRP | -0.45
RRIRCRPPRLPRPRPRPYIHPRP | -1.11
RRIRKRPPRLPRPRPRPWMMPRP | 0.211
RRIRCRPPRLPRPRPRPYCEPRP | -0.195
RRIRCRPPRLPRPRPRPQCHPRP | 0.134
RRIRDRPPRLPRPRPRPLIKPRP | 0.153
RRIRQRPPRLPRPRPRPAINPRP | -0.171
RRIRQRPPRLPRPRPRPHHGPRP | -0.042
RRIRMRPPRLPRPRPRPILFPRP | -0.385
RRIRKRPPRLPRPRPRPNQTPRP | 0.00514
